# What was measured:
# [1] = system: HeLa Kyoto; assay: melting temperature (median over replicates), in situ; higher = more thermally stable
# [2] = system: HeLa Kyoto; assay: thermal stability score vs G1/S (z-score of summed log2 fold changes over temperatures); higher = more thermally stable than in G1/S
# [3] = system: HeLa Kyoto; assay: solubility change mitosis vs G1/S (difference of NP-40 vs SDS log2 ratios) (log2 ratio difference); higher = more soluble in mitosis
# [4] = system: HeLa Kyoto; assay: solubility in G1/S (NP-40 vs SDS abundance) (log2 ratio); higher = more soluble; details: cell cycle stage: G1/S
# [5] = cell cycle stage: early G1 (4.5 h after nocodazole release)
# 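Throughout, for melting temperature (median over replicates), in situ: HeLa Kyoto cells synchronized by double thymidine or nocodazole block, proteins quantified by TMT10plex mass spectrometry, three independent biological replicates.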
# 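Throughout, for solubility change mitosis vs G1/S (difference of NP-40 vs SDS log2 ratios): synchronized HeLa Kyoto cells (double thymidine block for G1/S, nocodazole release for mitosis), protein amounts in NP-40 versus SDS lysates quantified by mass spectrometry, three biological replicates.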
# 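Throughout, for solubility in G1/S (NP-40 vs SDS abundance): HeLa Kyoto cells arrested at G1/S by double thymidine block, proteins quantified by TMT10plex mass spectrometry in mild NP-40 versus SDS extracts, three biological replicates.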
# 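Throughout, for thermal stability score vs G1/S (z-score of summed log2 fold changes over temperatures): synchronized HeLa Kyoto cells, proteins quantified by TMT10plex mass spectrometry, three biological replicates, mitosis taken 0.5 h after nocodazole release, G1/S directly after double thymidine block.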
# NUDC, sequence (chain, as listed by the source): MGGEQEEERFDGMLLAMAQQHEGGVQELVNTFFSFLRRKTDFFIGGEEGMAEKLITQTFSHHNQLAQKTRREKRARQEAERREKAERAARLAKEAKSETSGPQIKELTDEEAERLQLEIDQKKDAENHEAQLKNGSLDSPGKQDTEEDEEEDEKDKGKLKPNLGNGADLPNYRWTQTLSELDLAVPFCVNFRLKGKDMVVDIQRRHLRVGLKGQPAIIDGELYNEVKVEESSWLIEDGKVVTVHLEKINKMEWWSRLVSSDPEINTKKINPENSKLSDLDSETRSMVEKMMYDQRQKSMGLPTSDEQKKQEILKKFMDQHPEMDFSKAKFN
Substance,melting temperature ([1]; cell cycle stage: G1/S),melting temperature ([1]; cell cycle stage: mitosis),"thermal stability score [2, 5]",thermal stability score ([2]; cell cycle stage: mitosis),solubility change mitosis (log2) [3],solubility in G1/S (log2) [4]
MVRGRISRLSVRDVRFPTSLGGHGADAMHTDPDYSAAYVVIETDAEDGIKGCGITFTLGKGTEVVVCAVNALAHHVLNKDLKDIVGDFRGFYRQLTSDGQLRWIGPEKGVVHLATAAVLNAVWDLWAKQEGKPVWKLLVDMDPRMLVSCIDFRYITDVLTEEDALEILQKGQIGKKEREKQMLAQGYPAYTTSCAWLGYSDDTLKQLCAQALKDGWTRFKVKVGADLQDDMRRCQIIRDMIGPEKTLMMDANQRWDVPEAVEWMSKLAKFKPLWIEEPTSPDDILGHATISKALVPLGIGIATGEQCHNRVIFKQLLQAKALQFLQIDSCRLGSVNENLSVLLMAKKFEIPVCPHAGGVGLCELVQHLIIFDYISVSASLENRVCEYVDHLHEHFKYPVMIQRASYMPPKDPGYSTEMKEESVKKHQYPDGEVWKKLLPAQEN [ENOSF1],54.7 °C,55.1 °C,-0.19,-1.12,-0.108,0.0883
EPPK1,–,51.3 °C,-7.26,-8.82,0.311,-2.27
NUDC,51.9 °C,52.4 °C,0.837,-0.681,-0.106,0.405
PPP2R5A,50.8 °C,50.5 °C,0.702,1.43,-0.192,0.0389
MDRFVWTSGLLEINETLVIQQRGVRIYDGEEKIKFDAGTLLLSTHRLIWRDQKNHECCMAILLSQIVFIEEQAAGIGKSAKIVVHLHPAPPNKEPGPFQSSKNSYIKLSFKEHGQIEFYRRLSEEMTQRRWENMPVSQSLQTNRGPQPGRIRAVGIVGIERKLEEKRKETDKNISEAFEDLSKLMIKAKEMVELSKSIANKIKDKQGDITEDETIRFKSYLLSMGIANPVTRETYGSGTQYHMQLAKQLAGILQVPLEERGGIMSLTEVYCLVNRARGMELLSPEDLVNACKMLEALKLPLRLRVFDSGVMVIELQSHKEEEMVASALETVSEKGSLTSEEFAKLVGMSVLLAKERLLLAEKMGHLCRDDSVEGLRFYPNLFMTQS [VPS36],51.6 °C,51 °C,1.41,2.15,-0.0782,-0.823
MNGDSRAAVVTSPPPTTAPHKERYFDRVDENNPEYLRERNMAPDLRQDFNMMEQKKRVSMILQSPAFCEELESMIQEQFKKGKNPTGLLALQQIADFMTTNVPNVYPAAPQGGMAALNMSLGMVTPVNDLRGSDSIAYDKGEKLLRCKLAAFYRLADLFGWSQLIYNHITTRVNSEQEHFLIVPFGLLYSEVTASSLVKINLQGDIVDRGSTNLGVNQAGFTLHSAIYAARPDVKCVVHIHTPAGAAVSAMKCGLLPISPEALSLGEVAYHDYHGILVDEEEKVLIQKNLGPKSKVLILRNHGLVSVGESVEEAFYYIHNLVVACEIQVRTLASAGGPDNLVLLNPEKYKAKSRSPGSPVGEGTGSPPKWQIGEQEFEALMRMLDNLGYRTGYPYRYPALREKSKKYSDVEVPASVTGYSFASDGDSGTCSPLRHSFQKQQREKTRWLNSGRGDEASEEGQNGSSPKSKTKWTKEDGHRTSTSAVPNLFVPLNTNPKEVQEMRNKIREQNLQDIKTAGPQSQVLCGVVMDRSLVQGELVTASKAIIEKEYQPHVIVSTTGPNPFTTLTDRELEEYRREVERKQKGSEENLDEAREQKEKSPPDQPAVPHPPPSTPIKLEEDLVPEPTTGDDSDAATFKPTLPDLSPDEPSEALGFPMLEKEEEAHRPPSPTEAPTEASPEPAPDPAPVAEEAAPSAVEEGAAADPGSDGSPGKSPSKKKKKFRTPSFLKKSKKKSDS [ADD1],55.2 °C,55.1 °C,-4.45,-3.29,0.0666,0.119
MVADPPRDSKGLAAAEPTANGGLALASIEDQGAAAGGYCGSRDQVRRCLRANLLVLLTVVAVVAGVALGLGVSGAGGALALGPERLSAFVFPGELLLRLLRMIILPLVVCSLIGGAASLDPGALGRLGAWALLFFLVTTLLASALGVGLALALQPGAASAAINASVGAAGSAENAPSKEVLDSFLDLARNIFPSNLVSAAFRSYSTTYEERNITGTRVKVPVGQEVEGMNILGLVVFAIVFGVALRKLGPEGELLIRFFNSFNEATMVLVSWIMWYAPVGIMFLVAGKIVEMEDVGLLFARLGKYILCCLLGHAIHGLLVLPLIYFLFTRKNPYRFLWGIVTPLATAFGTSSSSATLPLMMKCVEENNGVAKHISRFILPIGATVNMDGAALFQCVAAVFIAQLSQQSLDFVKIITILVTATASSVGAAGIPAGGVLTLAIILEAVNLPVDHISLILAVDWLVDRSCTVLNVEGDALGAGLLQNYVDRTESRSTEPELIQVKSELPLDPLPVPTEEGNPLLKHYRGPAGDATVASEKESVM [SLC1A5],–,65.7 °C,-1.47,-1.94,-0.123,0.196
MFLVNSFLKGGGGGGGGGGGLGGGLGNVLGGLISGAGGGGGGGGGGGGGGGGGGGGTAMRILGGVISAISEAAAQYNPEPPPPRTHYSNIEANESEEVRQFRRLFAQLAGDDMEVSATELMNILNKVVTRHPDLKTDGFGIDTCRSMVAVMDSDTTGKLGFEEFKYLWNNIKRWQAIYKQFDTDRSGTICSSELPGAFEAAGFHLNEHLYNMIIRRYSDESGNMDFDNFISCLVRLDAMFRAFKSLDKDGTGQIQVNIQEWLQLTMYS [CAPNS1],55.4 °C,55 °C,1.02,1.65,-0.0652,0.395
PCNT,50.8 °C,52.9 °C,2.3,2.45,-0.162,-0.221
MATDELATKLSRRLQMEGEGGGETPEQPGLNGAAAAAAGAPDEAAEALGSADCELSAKLLRRADLNQGIGEPQSPSRRVFNPYTEFKEFSRKQIKDMEKMFKQYDAGRDGFIDLMELKLMMEKLGAPQTHLGLKNMIKEVDEDFDSKLSFREFLLIFRKAAAGELQEDSGLCVLARLSEIDVSSEGVKGAKSFFEAKVQAINVSSRFEEEIKAEQEERKKQAEEMKQRKAAFKELQSTFK [EFHD2],52.5 °C,53.7 °C,1.76,0.882,0.139,0.681
MPLFATNPFDQDVEKATSEMNTAEDWGLILDICDKVGQSRTGPKDCLRSIMRRVNHKDPHVAMQALTLLGACVSNCGKIFHLEVCSRDFASEVSNVLNKGHPKVCEKLKALMVEWTDEFKNDPQLSLISAMIKNLKEQGVTFPAIGSQAAEQAKASPALVAKDPGTVANKKEEEDLAKAIELSLKEQRQQSTTLSTLYPSTSSLLTNHQHEGRKVRAIYDFEAAEDNELTFKAGEIITVLDDSDPNWWKGETHQGIGLFPSNFVTADLTAEPEMIKTEKKTVQFSDDVQVETIEPEPEPAFIDEDKMDQLLQMLQSTDPSDDQPDLPELLHLEAMCHQMGPLIDEKLEDIDRKHSELSELNVKVMEALSLYTKLMNEDPMYSMYAKLQNQPYYMQSSGVSGSQVYAGPPPSGAYLVAGNAQMSHLQSYSLPPEQLSSLSQAVVPPSANPALPSQQTQAAYPNTMVSSVQGNTYPSQAPVYSPPPAATAAAATADVTLYQNAGPNMPQVPNYNLTSSTLPQPGGSQQPPQPQQPYSQKALL [STAM],50.3 °C,52 °C,0.119,0.654,-0.163,0.292
MSYTGFVQGSETTLQSTYSDTSAQPTCDYGYGTWNSGTNRGYEGYGYGYGYGQDNTTNYGYGMATSHSWEMPSSDTNANTSASGSASADSVLSRINQRLDMVPHLETDMMQGGVYGSGGERYDSYESCDSRAVLSERDLYRSGYDYSELDPEMEMAYEGQYDAYRDQFRMRGNDTFGPRAQGWARDARSGRPMASGYGRMWEDPMGARGQCMSGASRLPSLFSQNIIPEYGMFQGMRGGGAFPGGSRFGFGFGNGMKQMRRTWKTWTTADFRTKKKKRKQGGSPDEPDSKATRTDCSDNSDSDNDEGTEGEATEGLEGTEAVEKGSRVDGEDEEGKEDGREEGKEDPEKGALTTQDENGQTKRKLQAGKKSQDKQKKRQRDRMVERIQFVCSLCKYRTFYEDEMASHLDSKFHKEHFKYVGTKLPKQTADFLQEYVTNKTKKTEELRKTVEDLDGLIQQIYRDQDLTQEIAMEHFVKKVEAAHCAACDLFIPMQFGIIQKHLKTMDHNRNRRLMMEQSKKSSLMVARSILNNKLISKKLERYLKGENPFTDSPEEEKEQEEAEGGALDEGAQGEAAGISEGAEGVPAQPPVPPEPAPGAVSPPPPPPPEEEEEGAVPLLGGALQRQIRGIPGLDVEDDEEGGGGAP [AKAP8L],47.1 °C,48.8 °C,0.782,1.54,0.0856,-0.123

# — the supplement of paper PMC5998384
